Data on one molecule can be found in US20220002363A1, “COMPOSITIONS AND METHODS FOR TREATING PULMONARY DISEASE” (United States Government As Represented By The Department …, priority 2020, published 2022).

Positions count from the first letter of the chain named. Entries after “also recorded” stand apart in the source; their conditions may differ. Where two headings read alike, the source gives them in different places.

The target of one experiment is T1, Fas (Homo sapiens, UniProt P25445).
T1 construct: host or cells: Jurkat (human leukemic T lymphocytes)
T1 sequence (P25445 26-335): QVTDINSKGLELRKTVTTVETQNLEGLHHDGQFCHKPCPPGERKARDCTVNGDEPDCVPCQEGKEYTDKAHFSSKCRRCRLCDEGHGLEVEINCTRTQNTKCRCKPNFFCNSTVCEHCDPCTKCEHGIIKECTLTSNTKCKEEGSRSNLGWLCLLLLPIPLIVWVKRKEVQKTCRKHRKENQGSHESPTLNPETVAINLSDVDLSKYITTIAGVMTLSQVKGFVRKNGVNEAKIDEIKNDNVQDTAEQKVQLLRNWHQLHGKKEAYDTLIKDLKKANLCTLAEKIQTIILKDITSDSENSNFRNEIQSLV
The experiment is described as follows: Caspase 3/7 activity in Jurkat cells with Fas-activating antibody CH-11 and mut-sFasL at different molar ratios. The class given is cell-based. The following applies: 5-hour incubation. The method, then:
The mixtures were incubated for 2 hours in 96-well plates pre-coated with recombinant hsFas (250 ng/ml). After washing unbound material, biotin was detected using HRP conjugated Streptavidin. […] The sFasL bound to Fas was detected using polyclonal anti-human FasL antibodies. […] Different molar ratios of the Fas-activating antibody CH-11 and mut-sFasL were added, and caspase 3/7 activity measured after 5 hours. […] Data represent the results from three separate experiments, each done in duplicate, and were analyzed by 2-way ANOVA with Sidak's post hoc analysis. […] Each dot represents individual data; lines represent means±SD. *=P<0.05; **=P<0.01, ***P<0.001.
Antibodies and Reagents. […] FLAG tagged mut-sFasL was detected using HRP anti-FLAG monoclonal antibody (Sigma-Aldrich, Cat #A85920). […]
(§1) Measurements of apoptotic cascade activation. Apoptotic cascade activation was assessed by determining caspase 3/7 activity and Annexin V externalization. Caspase-3/7 activity was measured using a commercial substrate (Caspase-Glo 3/7 Assay, Promega, Madison, Wis., Cat #G8090) following manufacturer's instructions. Annexin V was measured with a luminescent commercial assay that allows for measurement of annexin V externalization in adherent cells (RealTime-Glo Annexin V assay, Promega, Madison, Wis., Cat #JA1011). Luminescence was measured with a Synergy H4 Microplate Reader (BioTek, Winooski, Vt.). […]

The next experiment deals with T2, WT-sFasL (Homo sapiens, UniProt P48023).
T2 construct: made in house
T2 sequence (P48023 103-281): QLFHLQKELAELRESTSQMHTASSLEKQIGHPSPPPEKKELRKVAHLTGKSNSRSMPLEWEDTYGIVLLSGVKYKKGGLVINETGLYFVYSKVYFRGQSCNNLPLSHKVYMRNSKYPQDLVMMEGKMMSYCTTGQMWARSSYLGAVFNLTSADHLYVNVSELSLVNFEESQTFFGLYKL
Put plainly: Attenuation of WT-sFasL-induced caspase 3/7 activity in murine lung epithelial cells (LA4). The class given is cell-based, mouse. As to the method:
FIGS. 2A-D show the mut-sFasL has inhibitory properties. Highly Fas-sensitive Jurkat cells (FIG. 2A), primary human lung small airway epithelial cells (SAEC, FIG. 2B) or murine lung epithelial cells (LA4, FIG. 2D) were incubated with serial dilutions of mutated FasL, (mut sFasL). […] As a confirmatory test, the experiment was repeated using SAEC and an annexin-V translocation assay (FIG. 2C). WT=wild type (no mutant). […] Each dot represents individual data; lines represent means±SD. *=P<0.05; **=P<0.01, ***P<0.001 when compared to WT. One way ANOVA with SIdak's post hoc analysis.
Mouse lung epithelial LA-4 cells were obtained from ATCC (catalogue number CCL-196, lot number 3404534). This cell line is derived from a A/He mouse lung adenoma (Stoner G, et al. Cancer Res. 1975; 35(8):2177-85). […]
as §1

B1: mut-sFasL: mutant sFasL molecule in which 8 charged amino acids in the 26 amino acid stalk region were changed to alanine (protein)
chain: T2 sequence (P48023 103-281) with H4A, K7A, E8A, E11A, R13A, E14A, H20A, E26A
On to B1, for which, in the experiment with Fas, the “effect on CH11 activity at very high molar ratios” value is “increased CH11 activity”. Moreover, in the experiment with Fas (different molar ratios of mut-sFasL and antibody), the “effect on caspase 3/7 activation induced by CH11” value is recorded as “did not attenuate the caspase 3/7 activation induced by CH11; also recorded: did not inhibit the activity of CH11”. The “inhibition of WT-sFasL-induced caspase 3-7 activity” value is “inhibited the ability of WT-sFasL to induce caspase 3-7 activity” in the experiment with WT-sFasL and “an inhibitory effect of the 8-mutant protein was detected” with WT-sFasL (listed as 8-mutant protein).
